Target: HLA-DR1 (DRA*01:01/DRB1*01:01) extracellular domain (human)
Assay: fluorescence polarisation

Substance | IC50 [nM]
Ac-photoHA photocleavable peptide (Ac-PRYVKxNTLRLAT) | 134
Ac-photoHAΔ1–2 photocleavable peptide (Ac-YVKxNTLRLAT) | 227
HA peptide (unlabeled, non-photocleavable), HA306-318-derived | 40
photoHA photocleavable peptide (PRYVKxNTLRLAT) | 92
photoHAΔ1–2 photocleavable peptide (YVKxNTLRLAT) | 1040
